Results: patent US20230324408A1 (JUNO THERAPEUTICS, published 2023)
One block for each binder: values may come before it.

Assays:
[1] = target: exemplary anti-ROR1 (ROR 1-1) chimeric antigen receptor; test: cell-based or functional assay
[2] = target: exemplary anti-ROR1 (ROR 1-1) chimeric antigen receptor; test: cell-based or functional assay; remark: listed apart in the source

exemplary anti-ROR1 (ROR 1-1) chimeric antigen receptor, sequence (chain, as listed by the source mutant limits assumed): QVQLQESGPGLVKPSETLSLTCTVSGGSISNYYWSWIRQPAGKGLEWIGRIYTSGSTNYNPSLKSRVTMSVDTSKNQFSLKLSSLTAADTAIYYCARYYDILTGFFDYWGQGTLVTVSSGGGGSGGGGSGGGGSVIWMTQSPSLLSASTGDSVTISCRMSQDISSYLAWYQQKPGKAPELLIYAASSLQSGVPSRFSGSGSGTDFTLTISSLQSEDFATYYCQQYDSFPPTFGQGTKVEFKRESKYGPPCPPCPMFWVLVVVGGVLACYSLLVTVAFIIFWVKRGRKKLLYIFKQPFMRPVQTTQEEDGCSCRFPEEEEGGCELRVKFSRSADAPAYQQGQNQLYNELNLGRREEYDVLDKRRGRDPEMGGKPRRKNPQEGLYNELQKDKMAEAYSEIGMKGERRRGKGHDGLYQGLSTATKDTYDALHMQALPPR

% Nur77-TdT of EGFRt+ cells, plate coated with 5 ug/ml antibody [1]: 83.9%
% Nur77-TdT of EGFRt+ cells, soluble antibody 0.3 ug/mL [2]: 38.3%
% Nur77-TdT of EGFRt+ cells, soluble antibody 0.6 ug/mL [2]: 41.3%
% Nur77-TdT of EGFRt+ cells, soluble antibody 10 ug/mL [2]: 43.2%
B1: anti-idiotype antibody clone F112 (antibody, mouse IgG1, V domains shown)
VH: QVQLQQPGAELVRPGASVKLSCKASGYPFTSYWINWVKQRPGQGLEWIGMIDPSDSETHYNQMFKDKATLTVDRSSSTAYMHLSSLTSEDSAVYYCARGGIRDYWGQGTTLTVSS
VL: QAVVTQESALTTSPGETVTLTCRSSTGAVTTSNYANWVQEKSDHLFTGLIGGTNNRAPGVPARFSGSLIGDKAALTITGAQTEDEAIYFCALWYSNHWVFGGGTKLTVLG

% Nur77-TdT of EGFRt+ cells, plate coated with 5 ug/ml antibody [1]: 89.8%
% Nur77-TdT of EGFRt+ cells, soluble antibody 0.3 ug/mL [2]: 11.4%
% Nur77-TdT of EGFRt+ cells, soluble antibody 0.6 ug/mL [2]: 11.8%
% Nur77-TdT of EGFRt+ cells, soluble antibody 10 ug/mL [2]: 11.7%
B2: anti-idiotype antibody clone F101 (antibody, mouse IgG1, kappa, V domains shown)
VH: QVQFQQSGAELARPGASVKLSCKASGYTFTSYWMQWVKQRPGQGLEWIGTIYPGDGDARYSQKFKGKATLTADKSSSTAYMQLSSLASEDSAVYYCTRRRGYDAMDYWGQGTSVTVSS
VL: NIVLTQSPASLAVSLGQRATISCRASESVDSYGSSFMHWYQEKPGQPPKLLIFLASNLESGVPARFSGSGSRTDFTLTIDPVEADDAATYYCQQNNEDPNMYTFGGGTKLEIRR

% Nur77-TdT of EGFRt+ cells, plate coated with 5 ug/ml antibody [1]: 85%
% Nur77-TdT of EGFRt+ cells, soluble antibody 0.3 ug/mL [2]: 15.6%
% Nur77-TdT of EGFRt+ cells, soluble antibody 0.6 ug/mL [2]: 19.9%
% Nur77-TdT of EGFRt+ cells, soluble antibody 10 ug/mL [2]: 28.3%
B3: anti-idiotype antibody clone F107 (antibody, mouse IgG1, kappa, V domains shown)
VH: QVTLKESGPGILKPSQTLSLTCSFSGFSLNTFGMGVGWIRQPSGKGLEWLAHIWWDDDKHYHPSLKSQLTISKDTSRNQVFLKITSVDTTDTATYYCVRRYRYDVFDYWGPGTTLTVSS
VL: DVMMTQTPLSLPVSLGDQASISCRSSQSLVHSNGNTYLHWYLQKPGQSPKLLIYKVSNRFSGVPDRFSGSGSGTDFTLKISRVEAEDLGVYFCSQSTHGPWTFGGGTKLEIKR
